Laboratory results from patent US7122646.

Legend:
hen egg lysozyme (hen) [1] = target: hen egg lysozyme (hen) (UniProt P00698); test: BIAcore, HEL coated chip
hen egg lysozyme (hen) [2] = target: hen egg lysozyme (hen) (UniProt P00698); test: phage ELISA with 50 µl phage supernatant, sheep anti-M13 detection; background 0.1

Sequence of UniProt P00698 (P00698 19-147 limits assumed): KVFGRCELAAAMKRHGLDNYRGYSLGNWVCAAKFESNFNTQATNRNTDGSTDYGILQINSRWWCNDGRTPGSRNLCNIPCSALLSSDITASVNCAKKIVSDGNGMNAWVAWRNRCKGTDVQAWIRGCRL

Substance: chimaeric D1.3 Fab fragment
- koff (hen egg lysozyme (hen) [1]): 0.003 s⁻¹

Substance: bispecific NQ11/D1.3 diabody, construct VI, 5 residue linkers (bispecific antibody)
- koff (hen egg lysozyme (hen) [1]): 0.0022 s⁻¹

Substance: NQ11/D1.3/0 bispecific diabody displayed on the surface of phage (bispecific antibody)
- absorbance signal (hen egg lysozyme (hen) [2]): 2.8
